The chains are these.
B1: ZNF263 (parent)
chain: CSECGESFSRSSRLMSHQRTHTG
B2: ETS1 (parent)
chain: FSEPSFITESYQTLHPISSEELLS

This is an account of results in the supplement of paper PMC10567573.
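Note: lentivirally expressed fusions sorted by FACS into six bins by GFP to DsRed ratio, PSI derived from sequencing read proportions per bin multiplied by bin number.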

The variants in the first series derive from B1. Put plainly: protein stability index of a GFP-peptide fusion (GPS, HEK-293T) (PSI 1-6); higher = more stable. Particulars: c terminus: native.
On to CSECGESFSRSSRLMSHQRTHTQ [G23Q], for which the protein stability index was 4.16.

CSECGESFSRSSRLMSHQRTHTS [G23S]: the protein stability index came out at 4.

As to CSECGESFSRSSRLMSHQRTHTV [G23V], the protein stability index was found to be 3.56.

As for CSECGESFSRSSRLMSHQRTHTT [G23T], the protein stability index amounted to 4.04.

On to CSECGESFSRSSRLMSHQRTHTY [G23Y], for which the protein stability index is 3.29.

As for CSECGESFSRSSRLMSHQRTHTR [G23R], the protein stability index worked out at 4.2.

As for CSECGESFSRSSRLMSHQRTHTW [G23W], the protein stability index worked out at 3.79.

As to CSECGESFSRSSRLMSHQRTHTP [G23P], the protein stability index was determined as 4.52.

Variants of B2 are the subject of another series. Described as above. Particulars: c terminus: a fixed tail appended.
In the case of FYEPSFITESYQTLHPISSEELLS [S2Y], the protein stability index was found to be 2.62.

Consider FPEPSFITESYQTLHPISSEELLS [S2P], for which the protein stability index was 1.95.

On to FCEPSFITESYQTLHPISSEELLS [S2C], for which the protein stability index turned out to be 2.38.

For the variant FQEPSFITESYQTLHPISSEELLS [S2Q], the protein stability index was 1.65.

For the variant FDEPSFITESYQTLHPISSEELLS [S2D], the protein stability index was determined as 4.15.

Take FGEPSFITESYQTLHPISSEELLS [S2G]: the protein stability index stood at 2.63.

Regarding FAEPSFITESYQTLHPISSEELLS [S2A], the protein stability index turned out to be 2.42.

Consider FEEPSFITESYQTLHPISSEELLS [S2E], for which the protein stability index stood at 3.98.

FFEPSFITESYQTLHPISSEELLS [S2F]: the protein stability index came out at 2.26.

On to FIEPSFITESYQTLHPISSEELLS [S2I], for which the protein stability index is 3.17.

As for FLEPSFITESYQTLHPISSEELLS [S2L], the protein stability index turned out to be 1.49.

On to FHEPSFITESYQTLHPISSEELLS [S2H], for which the protein stability index worked out at 2.46.

Regarding FNEPSFITESYQTLHPISSEELLS [S2N], the protein stability index came to 3.37.

Turning to FVEPSFITESYQTLHPISSEELLS [S2V], the protein stability index was 2.42.

Turning to FMEPSFITESYQTLHPISSEELLS [S2M], the protein stability index amounted to 1.72.

For FTEPSFITESYQTLHPISSEELLS [S2T], the protein stability index is 1.95.

Take FWEPSFITESYQTLHPISSEELLS [S2W]: the protein stability index worked out at 2.1.

As for FKEPSFITESYQTLHPISSEELLS [S2K], the protein stability index amounted to 3.34.

Consider FREPSFITESYQTLHPISSEELLS [S2R], for which the protein stability index came to 2.66.

As for FSEPSMITESYQTLHPISSEELLS [F6M], the protein stability index came to 3.48.

Regarding FSEPSSITESYQTLHPISSEELLS [F6S], the protein stability index stood at 4.2.

Regarding FSEPSRITESYQTLHPISSEELLS [F6R], the protein stability index came to 4.13.

As to FSEPSDITESYQTLHPISSEELLS [F6D], the protein stability index is 4.8.

FSEPSVITESYQTLHPISSEELLS [F6V]: the protein stability index is 3.23.

Consider FSEPSQITESYQTLHPISSEELLS [F6Q], for which the protein stability index stood at 4.76.

With FSEPSAITESYQTLHPISSEELLS [F6A], the protein stability index was 4.

Consider FSEPSHITESYQTLHPISSEELLS [F6H], for which the protein stability index worked out at 4.14.

Turning to FSEPSEITESYQTLHPISSEELLS [F6E], the protein stability index turned out to be 4.53.

As for FSEPSYITESYQTLHPISSEELLS [F6Y], the protein stability index stood at 2.74.

For FSEPSKITESYQTLHPISSEELLS [F6K], the protein stability index came to 3.58.

For the variant FSEPSPITESYQTLHPISSEELLS [F6P], the protein stability index amounted to 4.26.

In the case of FSEPSTITESYQTLHPISSEELLS [F6T], the protein stability index came to 4.34.

FSEPSCITESYQTLHPISSEELLS [F6C]: the protein stability index came to 3.36.

Take FSEPSWITESYQTLHPISSEELLS [F6W]: the protein stability index is 2.27.

For the variant FSEPSGITESYQTLHPISSEELLS [F6G], the protein stability index amounted to 3.85.

In the case of FSEPSIITESYQTLHPISSEELLS [F6I], the protein stability index was 3.15.

On to FSEPSNITESYQTLHPISSEELLS [F6N], for which the protein stability index came out at 4.57.

For the variant FSEPSLITESYQTLHPISSEELLS [F6L], the protein stability index was 3.22.

FSEPSFHTESYQTLHPISSEELLS [I7H]: the protein stability index was 2.42.

With FSEPSFFTESYQTLHPISSEELLS [I7F], the protein stability index came out at 1.68.

In the case of FSEPSFSTESYQTLHPISSEELLS [I7S], the protein stability index came out at 3.55.

With FSEPSFTTESYQTLHPISSEELLS [I7T], the protein stability index was determined as 3.29.

FSEPSFWTESYQTLHPISSEELLS [I7W]: the protein stability index came to 2.33.

In the case of FSEPSFKTESYQTLHPISSEELLS [I7K], the protein stability index amounted to 3.73.

FSEPSFATESYQTLHPISSEELLS [I7A]: the protein stability index is 1.59.

For the variant FSEPSFGTESYQTLHPISSEELLS [I7G], the protein stability index stood at 2.33.

Regarding FSEPSFPTESYQTLHPISSEELLS [I7P], the protein stability index stood at 3.09.

Turning to FSEPSFCTESYQTLHPISSEELLS [I7C], the protein stability index was 2.03.

With FSEPSFETESYQTLHPISSEELLS [I7E], the protein stability index came to 4.03.

In the case of FSEPSFVTESYQTLHPISSEELLS [I7V], the protein stability index stood at 2.21.

On to FSEPSFYTESYQTLHPISSEELLS [I7Y], for which the protein stability index was 2.82.

FSEPSFLTESYQTLHPISSEELLS [I7L]: the protein stability index turned out to be 2.19.

On to FSEPSFDTESYQTLHPISSEELLS [I7D], for which the protein stability index is 4.01.

FSEPSFQTESYQTLHPISSEELLS [I7Q]: the protein stability index came out at 3.83.

With FSEPSFNTESYQTLHPISSEELLS [I7N], the protein stability index was 4.24.

In the case of FSEPSFRTESYQTLHPISSEELLS [I7R], the protein stability index was 3.17.

Consider FSEPSFMTESYQTLHPISSEELLS [I7M], for which the protein stability index came to 2.31.

On to FSEPSFIFESYQTLHPISSEELLS [T8F], for which the protein stability index amounted to 1.95.

In the case of FSEPSFIGESYQTLHPISSEELLS [T8G], the protein stability index amounted to 2.05.

In the case of FSEPSFIRESYQTLHPISSEELLS [T8R], the protein stability index was 2.12.

For FSEPSFIEESYQTLHPISSEELLS [T8E], the protein stability index stood at 3.4.

Turning to FSEPSFIYESYQTLHPISSEELLS [T8Y], the protein stability index came out at 2.17.

In the case of FSEPSFINESYQTLHPISSEELLS [T8N], the protein stability index was determined as 2.91.

FSEPSFISESYQTLHPISSEELLS [T8S]: the protein stability index was determined as 2.38.

Take FSEPSFIVESYQTLHPISSEELLS [T8V]: the protein stability index was 1.36.

Regarding FSEPSFIHESYQTLHPISSEELLS [T8H], the protein stability index is 2.04.

As to FSEPSFIQESYQTLHPISSEELLS [T8Q], the protein stability index was found to be 2.59.

With FSEPSFIKESYQTLHPISSEELLS [T8K], the protein stability index stood at 2.32.

In the case of FSEPSFIIESYQTLHPISSEELLS [T8I], the protein stability index amounted to 1.98.

As for FSEPSFILESYQTLHPISSEELLS [T8L], the protein stability index is 1.92.

For the variant FSEPSFICESYQTLHPISSEELLS [T8C], the protein stability index was found to be 2.22.

On to FSEPSFIMESYQTLHPISSEELLS [T8M], for which the protein stability index amounted to 1.78.

Regarding FSEPSFIDESYQTLHPISSEELLS [T8D], the protein stability index was 3.47.

For FSEPSFIAESYQTLHPISSEELLS [T8A], the protein stability index amounted to 2.29.

In the case of FSEPSFIPESYQTLHPISSEELLS [T8P], the protein stability index came out at 3.5.

For the variant FSEPSFITHSYQTLHPISSEELLS [E9H], the protein stability index worked out at 2.

Turning to FSEPSFITSSYQTLHPISSEELLS [E9S], the protein stability index was 2.25.

Regarding FSEPSFITMSYQTLHPISSEELLS [E9M], the protein stability index was determined as 2.32.

For FSEPSFITLSYQTLHPISSEELLS [E9L], the protein stability index was found to be 1.5.

As for FSEPSFITFSYQTLHPISSEELLS [E9F], the protein stability index is 2.58.

Turning to FSEPSFITPSYQTLHPISSEELLS [E9P], the protein stability index worked out at 1.75.

In the case of FSEPSFITASYQTLHPISSEELLS [E9A], the protein stability index is 1.76.

Consider FSEPSFITVSYQTLHPISSEELLS [E9V], for which the protein stability index stood at 2.05.

Regarding FSEPSFITCSYQTLHPISSEELLS [E9C], the protein stability index turned out to be 2.25.

Turning to FSEPSFITGSYQTLHPISSEELLS [E9G], the protein stability index stood at 1.88.

As for FSEPSFITKSYQTLHPISSEELLS [E9K], the protein stability index amounted to 1.97.
